This data set concerns the molecule itself. In words: SEC. Background: Size exclusion chromatography separates by hydrodynamic size, large species first.

This is an account of results in article doi:10.1101/2021.08.06.455374 (bioRxiv, 2021).

B1: dolphin Prestin (SLC26A5) (natural protein)
chain: MDHVEETEILAATQRYYVERPIFSHPVLQERLHKKDKISESIGDKLKQAFTCTPKKIRNIIYMFLPITKWLPAYRFKEYVLGDIVSGISTGVLQLPQGLAFAMLAAVPPVFGLYSSFYPVIMYCFFGTSRHISIGPFAVISLMIGGVAVRLVPDDIVIPGGVNATNSTEARDALRVKVAMSVTLLTGIIQFCLGVCRFGFVAIYLTEPLVRGFTTAAAVHVFTSMLKYLFGVKTKRYSGIFSVVYSTVAVLQNVKNLNVCSLGVGLMVFGLLLGGKEFNERFKEKLPAPIPLEFFAVVMGTGISAGFSLHESYNVDVVGTLPLGLLPPANPDTSLFHLVYVDAIAIAIVGFSVTISMAKTLANKHGYQVDGNQELIALGLCNSTGSLFQTFAISCSLSRSLVQEGTGGKTQLAGCLASLMILLVILATGFLFESLPQAVLSAIVIVNLKGMFMQFSDLPFFWRTSKIELTIWLTTFVSSLFLGLDYGLITAVIIALMTVIYRTQSPSYIVLGQLPDTDVYIDIDAYEEVKEVPGIKIFQINAPIYYANSDLYSSALKRKTGVNPAFILGARRKAMKKYAKEVGNANMANATVVKVDAEVDAEDGTKPEEEEDEIKYPPIVTKSTLPEELQRFMPPGDNVHTIILDFTQVNFMDSVGVKTLAGIVKEYGDVGIYVYLAGCSAQVVSDLTQNQFFENPALLDLLFHSIHDAVLGSQVREALAEQEATAAPPQEDSEPNATPEA
What is called stoichiometry N is the number of molecules, sites or subunits per partner or assembly. B1: the “stoichiometry N” value is 2.
